One test has as its target T1, Human CD3 E+G HuFc-6xHis (human).
T1 construct: also called hu CD3εγ-Fc
Put plainly: SPR (ProteOn XPR36), HuCD3E_HuCD3G-Fc amine-coupled, bispecific as analyte, Example 4B. Summed up: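 Human CD3ε/γ-Fc fusion is amine-coupled to the chip at pH 4.5. Anti-DLL3/CD3 bispecifics are injected as analyte in PBS-T-EDTA at 30 μl/min, with 600 s association and 1800 s dissociation. Binding kinetics are measured by SPR.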

The target of the next test is T2, Human DLL3-His (human, UniProt Q9NYJ7 27-492).
T2 construct: also called huDLL3-His; hu DLL3
T2 sequence: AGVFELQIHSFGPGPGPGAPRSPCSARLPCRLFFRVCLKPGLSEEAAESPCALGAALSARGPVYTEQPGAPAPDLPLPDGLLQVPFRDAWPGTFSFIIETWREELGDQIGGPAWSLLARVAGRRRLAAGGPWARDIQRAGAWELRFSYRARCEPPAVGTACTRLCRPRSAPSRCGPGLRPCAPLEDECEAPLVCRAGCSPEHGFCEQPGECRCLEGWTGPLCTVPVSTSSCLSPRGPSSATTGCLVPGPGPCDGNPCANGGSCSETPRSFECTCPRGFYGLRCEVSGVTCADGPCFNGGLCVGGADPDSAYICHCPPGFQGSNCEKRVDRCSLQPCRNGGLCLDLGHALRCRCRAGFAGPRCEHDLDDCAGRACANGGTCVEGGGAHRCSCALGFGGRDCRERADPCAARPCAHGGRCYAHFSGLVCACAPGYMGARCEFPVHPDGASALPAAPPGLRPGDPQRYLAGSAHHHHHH
Put plainly: SPR (ProteOn XPR36), bispecific captured on protein A/G, hu DLL3 as analyte, Example 4B. Summed up: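 Bispecific constructs captured on protein A/G for 200 s at 30 μl/min, baseline stabilized with PBS-T-EDTA. Human DLL3 analyte injected 300 s at 30 μl/min; dissociation followed for 1800 s.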

Test [1] deals with T3, FLAG-tagged human DLL4 full length (human, UniProt Q9NR61 1-685).
T3 construct: also called human DLL4 on HEK293 cells
Put plainly: flow cytometry on HEK293 cells expressing human DLL4 (HEK293-huDLL4), PE anti-human secondary, control: secondary antibody only. The method, then: (§1) Bound molecules were detected with PE-conjugated anti-human secondary antibody (Sigma-Aldrich, #P8047). As negative control, cells were incubated with secondary antibody only. The samples were measured by flow-cytometry.

In test [2] the target is T4, human DLL3 (endogenous, on SCLC cell lines NCI-H82 and SHP77 and in SCLC tissue) (human, UniProt Q9NYJ7 27-618).
T4 construct: whole, on cells; also called SCLC cell lines expressing DLL3
T4 sequence (looked up): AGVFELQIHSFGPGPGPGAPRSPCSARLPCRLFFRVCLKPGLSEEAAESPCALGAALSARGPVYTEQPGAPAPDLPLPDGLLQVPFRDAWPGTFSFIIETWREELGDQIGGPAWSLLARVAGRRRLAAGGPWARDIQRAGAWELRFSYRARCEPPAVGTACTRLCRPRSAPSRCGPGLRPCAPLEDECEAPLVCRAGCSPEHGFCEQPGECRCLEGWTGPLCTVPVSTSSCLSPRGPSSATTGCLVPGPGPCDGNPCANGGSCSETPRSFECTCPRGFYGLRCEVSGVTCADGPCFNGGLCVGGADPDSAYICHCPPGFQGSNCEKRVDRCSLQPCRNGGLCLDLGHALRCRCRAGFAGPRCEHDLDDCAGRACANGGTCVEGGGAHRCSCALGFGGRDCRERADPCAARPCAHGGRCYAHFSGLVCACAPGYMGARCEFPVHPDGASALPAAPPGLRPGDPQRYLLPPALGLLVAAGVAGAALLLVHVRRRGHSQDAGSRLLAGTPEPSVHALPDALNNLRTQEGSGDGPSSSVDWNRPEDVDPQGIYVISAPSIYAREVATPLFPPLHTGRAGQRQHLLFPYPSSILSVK
Kind of test: flow cytometry titration on SHP77 cells, PE anti-human secondary, x-fold over background. An excerpt: Cells (T cells or human SCLC cells) were stained with increasing concentrations of two-step purified DLL3/CD3 binding proteins with increasing concentrations in FACS buffer (PBS/0.5% BSA/0.05% sodium azide). Bound molecules were detected with PE-conjugated anti-human secondary antibody (Sigma-Aldrich, #P8047).

The target in test [3] is T5, FLAG-tagged human DLL1 full length (human, UniProt O00548 1-723).
T5 construct: also called human DLL1 on HEK293 cells
T5 sequence: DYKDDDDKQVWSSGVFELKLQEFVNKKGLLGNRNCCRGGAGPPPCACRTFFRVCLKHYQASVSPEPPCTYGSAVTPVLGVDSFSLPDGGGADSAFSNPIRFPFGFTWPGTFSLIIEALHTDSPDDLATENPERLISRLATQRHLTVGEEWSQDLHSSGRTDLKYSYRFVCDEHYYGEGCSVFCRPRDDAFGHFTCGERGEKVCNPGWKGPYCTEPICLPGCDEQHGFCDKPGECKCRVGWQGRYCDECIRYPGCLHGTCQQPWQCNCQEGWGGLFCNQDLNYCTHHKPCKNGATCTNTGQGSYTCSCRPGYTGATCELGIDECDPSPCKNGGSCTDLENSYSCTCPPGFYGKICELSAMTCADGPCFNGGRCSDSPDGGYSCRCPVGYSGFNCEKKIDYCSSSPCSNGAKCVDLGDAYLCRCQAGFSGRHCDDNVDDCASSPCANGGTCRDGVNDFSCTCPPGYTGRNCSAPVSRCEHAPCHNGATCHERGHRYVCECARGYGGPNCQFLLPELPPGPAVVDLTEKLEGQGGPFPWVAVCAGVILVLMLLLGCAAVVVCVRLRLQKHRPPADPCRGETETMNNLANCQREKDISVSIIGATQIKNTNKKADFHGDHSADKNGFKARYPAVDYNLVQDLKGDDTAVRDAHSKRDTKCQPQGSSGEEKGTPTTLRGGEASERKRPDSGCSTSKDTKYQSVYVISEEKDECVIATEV
Kind of test: flow cytometry on HEK293 cells expressing human DLL1 (HEK293-huDLL1), PE anti-human secondary, control: secondary antibody only. The method, then: as §1

T3 sequence (Q9NR61 other isoform, or with tags, fused parts or gaps limits assumed): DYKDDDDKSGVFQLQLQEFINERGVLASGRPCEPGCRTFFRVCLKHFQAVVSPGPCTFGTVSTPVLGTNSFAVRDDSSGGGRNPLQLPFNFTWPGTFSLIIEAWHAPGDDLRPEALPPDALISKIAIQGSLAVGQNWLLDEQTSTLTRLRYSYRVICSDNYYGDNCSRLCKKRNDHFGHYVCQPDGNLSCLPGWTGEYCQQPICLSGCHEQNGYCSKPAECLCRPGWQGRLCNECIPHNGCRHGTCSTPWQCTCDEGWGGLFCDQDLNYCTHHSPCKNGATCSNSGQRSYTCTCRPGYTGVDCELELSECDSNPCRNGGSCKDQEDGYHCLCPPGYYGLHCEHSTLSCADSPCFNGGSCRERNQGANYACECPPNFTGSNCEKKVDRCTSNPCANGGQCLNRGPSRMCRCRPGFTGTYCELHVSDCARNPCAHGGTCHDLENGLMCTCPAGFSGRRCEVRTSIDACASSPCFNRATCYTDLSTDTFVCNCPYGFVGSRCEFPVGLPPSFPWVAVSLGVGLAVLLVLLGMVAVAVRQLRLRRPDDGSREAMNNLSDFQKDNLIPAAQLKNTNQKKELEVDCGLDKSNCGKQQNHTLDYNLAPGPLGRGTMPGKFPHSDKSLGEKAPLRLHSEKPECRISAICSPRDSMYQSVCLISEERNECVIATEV
T1 sequence (chain, as listed by the source limits assumed): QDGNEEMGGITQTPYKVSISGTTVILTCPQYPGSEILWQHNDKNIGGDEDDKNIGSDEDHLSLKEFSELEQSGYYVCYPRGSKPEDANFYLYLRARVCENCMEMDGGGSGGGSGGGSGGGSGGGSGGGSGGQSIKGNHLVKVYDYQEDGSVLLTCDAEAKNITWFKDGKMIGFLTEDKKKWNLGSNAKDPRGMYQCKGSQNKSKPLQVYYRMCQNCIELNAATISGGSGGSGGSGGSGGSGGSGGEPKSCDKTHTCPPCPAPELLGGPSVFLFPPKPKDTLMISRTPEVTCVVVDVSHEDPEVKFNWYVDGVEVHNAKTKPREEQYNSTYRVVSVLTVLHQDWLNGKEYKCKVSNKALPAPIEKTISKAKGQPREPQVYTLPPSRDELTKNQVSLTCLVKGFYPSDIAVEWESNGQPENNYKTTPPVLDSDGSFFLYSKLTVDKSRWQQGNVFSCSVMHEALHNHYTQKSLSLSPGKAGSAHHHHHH

B1: DLL3#6/CD3#1 (bispecific antibody, human IgG1, kappa, lambda, L234A L235A)
chain 1: DIQLTQSPSFLSTSVGDRVTITCRASQDISNYFAWYQQKPGKAPKLLIYAASTLQSGVPSRFSGGGSGTEFTLTISSLQPEDFATYYCQQLNSYPYTFGQGTKLEIKRTVAAPSVFIFPPSDEQLKSGTASVVCLLNNFYPREAKVQWKVDNALQSGNSQESVTEQDSKDSTYSLSSTLTLSKADYEKHKVYACEVTHQGLSSPVTKSFNRGECGGGGSEGKSSGSGSESKSTEGKSSGSGSESKSTGGGGSQVQLQESGPGLVKPSETLSLTCTVSGGSISSYFWSWIRQPAGKGLEWIGRIYTSGSTNYNPSLNSRLTMSVDTSKNQFSLKLSSVTAADTAVYYCARRGDWGGFDIWGQGTVVTVSSASTKGPSVFPLAPSSKSTSGGTAALGCLVKDYFPEPVTVSWNSGALTSGVHTFPAVLQSSGLYSLSSVVTVPSSSLGTQTYICNVNHKPSNTKVDKRVEPKSCDKTHTCPPCPAPEAAGGPSVFLFPPKPKDTLMISRTPEVTCVVVDVSHEDPEVKFNWYVDGVEVHNAKTKPREEQYNSTYRVVSVLTVLHQDWLNGKEYKCKVSNKALPAPIEKTISKAKGQPREPQVYTLPPSREEMTKNQVSLWCLVKGFYPSDIAVEWESNGQPENNYKTTPPVLDSDGSFFLYSKLTVDKSRWQQGNVFSCSVMHEALHNHYTQKSLSLSPG
chain 2: EAVVTQEPSLTVSPGGTVTLTCRSSTGAVTTSNYANWVQEKPGQLPRGLIGGTNKRAPWVPARFSGSLLGGKAALTLSGAQPEDEAEYFCALWYSNLWVFGGGTKLTVLGQPKAAPSVTLFPPSSEELQANKATLVCLISDFYPGAVKVAWKADGSPVNTGVETTTPSKQSNNKYAASSYLSLTPEQWKSHRSYSCQVTHEGSTVEKTVAPAECSGGGGSEGKSSGSGSESKSTEGKSSGSGSESKSTGGGGSEVQLVESGGGLVQPGGSLKLSCAASGFTFNTYAMNWVRQAPGKGLEWVARIRSKYNNYATYYADSVKDRFTISRDDSKNTAYLQMNNLKTEDTAVYYCVRHGNFGNSYVSWFAYWGQGTLVTVSAASTKGPSVFPLAPSSKSTSGGTAALGCLVKDYFPEPVTVSWNSGALTSGVHTFPAVLQSSGLYSLSSVVTVPSSSLGTQTYICNVNHKPSNTKVDKRVEPKSCDKTHTCPPCPAPEAAGGPSVFLFPPKPKDTLMISRTPEVTCVVVDVSHEDPEVKFNWYVDGVEVHNAKTKPREEQYNSTYRVVSVLTVLHQDWLNGKEYKCKVSNKALPAPIEKTISKAKGQPREPQVYTLPPSREEMTKNQVSLSCAVKGFYPSDIAVEWESNGQPENNYKTTPPVLDSDGSFFLVSKLTVDKSRWQQGNVFSCSVMHEALHNRFTQKSLSLSPG
notes: Heterodimer of one DLL3 chain and one CD3 chain (scFab-Fc, knob-in-hole)
Consider B1, for which the Kd was determined as 2 nM with Human CD3 E+G HuFc-6xHis and 0.152 nM with Human DLL3-His. For the same molecule, the binding result in test [1] and in test [3] was “no binding (tested: 1.6 nM)” throughout. The “EC50 (read off the curve)” value in test [2] is about 2 nM.

For the origin of these results see US20220251236A1 (Boehringer Ingelheim, published 2022).
